In patent US8809287B2, “Compositions and methods for altering Wnt autocrine signaling” (Icahn School of Medicine at Mount Sinai, priority 2004, dated 2014):

How the values were obtained:
[1] = tested on: uncomplexed β-catenin; experiment: Uncomplexed β-catenin in PAI ovarian tumor cells; format: cell-based, human; details: DKK1-HA retrovirus
Method: (§1) β-catenin levels were assessed using the GST-E-cadherin binding assay, which has been previously described (Bafico et al., (1998) Oncogene 16:2819-2825). Briefly, bacterially expressed GST-E-cadherin was purified with glutathione-Sepharose beads and incubated with 1 mg of each cell lysate. The GST-E-cadherin/[…]-catenin complex bound to the beads was recovered by centrifugation and analyzed by SDS-PAGE followed by immunoblotting. The uncomplexed β-catenin was detected using a monoclonal antibody to β-catenin (Transduction Laboratories). Unphosphorylated β-catenin was detected with a monoclonal antibody specific for β-catenin dephosphorylated at residues 27-37 (Alexis, Läufelfingen, Switzerland). FRP1-HA and DKK1-HA were detected with an anti-HA monoclonal antibody (Hybridoma Center, Mount Sinai School of Medicine, New York).
Breast (MDAMB231, ATCC No. HTB-26) and ovarian A1847 tumor cell lines were infected with vector alone or FRP 1-HA (described in Example 1) retroviruses and marker selected. […] Breast (MDAMB231) and ovarian A1847 tumor cell lines were analyzed for uncomplexed β-catenin and FRP 1-HA by immunoblot analysis with either an anti-β-catenin antibody (Transduction Laboratories) or an anti-HA antibody (Hybridoma Center, Mount Sinai School of Medicine, New York). […]

[2] = tested on: uncomplexed β-catenin; experiment: Uncomplexed β-catenin in HCC38 and other positive breast cancer cell lines; format: cell-based, human; details: HCC38 and several positive breast cancer lines; DKK1-containing conditioned media for two hours
Method: as §1
In addition, we have analyzed about 20 additional human breast cancer cell lines for increased levels of uncomplexed β-catenin. Analysis of uncomplexed β-catenin levels was performed as described in Example 3 utilizing 1 mg of total cell lysate. A monoclonal antibody to β-catenin (Transduction Laboratories) was utilized for immunoblotting. We found increased levels of uncomplexed β-catenin in 6 of these cell lines (FIG. 3A, lanes 1, 3, 4 and data not shown). We have also analyzed DKK inhibition of autocrine Wnt signaling in HCC38 breast cancer cells. […]

B1: DKK1: Dickkopf-1, secreted Wnt antagonist protein that binds Wnt co-receptor LRP6; used purified, in conditioned media or retrovirally expressed with HA tag (protein, UniProt O94907 32-266, looked up)
Dickkopf-related protein 1: TLNSVLNSNAIKNLPPPLGGAAGHPGSAVSAAPGILYPGGNKYQTIDNYQPYPCAEDEECGTDEYCASPTRGGDAGVQICLACRKRRKRCMRHAMCCPGNYCKNGICVSSDQNHFRGEIEETITESFGNDHSTLDGYSRRTTLSSKMYHTKGQEGSVCLRSSDCASGLCCARHFWSKICKPVLKEGQVCTKHRRKGSHGLEIFQRCYCGEGLSCRIQKDHHQASNSSRLHTCQRH
modifications: HA tag in some uses
[1]
  constitutively up-regulated β-catenin: inhibition of constitutively up-regulated β-catenin
[2]
  uncomplexed β-catenin levels: striking reduction
